Assay results published in publication PMC4531439, “New insights into the molecular mechanism of the Rab GTPase Sec4p activation” (BMC Structural Biology, 2015).

Molecular target: the molecule itself
Assay: cell-based or functional assay

B1: Sec2p (51–142) (domain or fragment, UniProt P17065 51-142, looked up)
chain: NYNQLKEDYNTLKRELSDRDDEVKRLREDIAKENELRTKAEEEADKLNKEVEDLTASLFDEANNMVADARKEKYAIEILNKRLTEQLREKDT
- mantGDP dissociation rate from Sec4p(19-187) stimulated by 500 nM Sec2p(51-142), compared with Sec2p(1-160): 20 fold slower than Sec2p 1-160
